Results as given in the DeepSol protein solubility set.

Test: soluble on expression in E. coli; label from the status in PepcDB or PDB records

Row | Sequence | soluble on expression in E. coli
1 | MSDSGRADALLAQLPREGRGRLKVFLGAAPGVGKTYAMLQAAHAQLRQGVRVMAGVVETHGRAETEALLNGLPQQPLLRTEYRGMTLEEMDLDALLKAAPSLVLVDELAHTNAPGSRHTKRWQDIQELLAAGIDVYTTVNVQHLESLNDQVRGITGVQVRETLPDWVLQEAFDLVLIDLPPRELLERLRDGKVYVPEQARAAIDAFFTQTNLTALREMAMQTAAAQV | not soluble
2 | MNPSVKIVVLSLPTATARRSQMSAMLGNTSLDWQYFDAHASLMCPNLHYDGAELRRHFGRNLSPPEIAVCSSHAAILQEFVDRNQADYILVLEDDVIFDTDFPLDQFCAFCASNGLEYVRLFGKHYAKAVHLGFFYDRSIVRFTTSPAGAQAYLMSRMAARRFLDSYQSIRATVDLAMDSFWITQLPIYSIFPYPIIERFSPTSIPMPPHTVEVRGLEHAIWQGARVVNKAKKILTNAKLRKSDESLRQRHWQFRQVGRVDVEQRRDPAAALEHHHHHH | soluble
3 | MTQAVMLQGTASDVGKSVLAAGLCRIFYQDGLRTAPFKSQNMALNSGITPDGKEMGRAQIFQAEAAGITPDVRMNPVLLKPTSDRQAQVVLMGKVATNMDAVSYHDYKPRLREQILAVYNSLAQEYDVIVLEGAGSPAEINLRDRDIVNMGMAEMAQCPVILVADIDRGGVFAAIYGTLALLHKQERDRVKGVIINKFRGDVALLYSGIEQIESLTGVPVLGVMPWLDVDLEDEDGVALQNDKYRGNAPRDITIAIVQLPHISNFTDFNALAAQPDVRIRYIRRPEALTDVDLVILPGSKNTLSDLAWLRESGMADAVLQTHRQGVPVMGICGGYQMLGDTIVDEVESGLGTQPGLGLLNTITRFAQDKTTTQVNATMSGELPGWLAAAAGLPVRGYEIHMGETVLQEGCCTAMTLQKNGCSVADGAVTADGLAFGTYLHGLFDSDAFTRAVVNGLRARKGLAPWETTFCYADHKARQFDLLAEAMRQHIDIDKIYTIMQQHQEPV | not soluble
4 | MGSDKIHHHHHHMKLSINKNTLESAVILCNAYVEKKDSSTITSHLFFHADEDKLLIKASDYEIGINYKIKKIRVESSGFATANAKSIADVIKSLNNEEVVLETIDNFLFVRQKSTKYKLPMFNHEDFPNFPNTEGKNQFDIDSSDLSRSLKKILPSIDTNNPKYSLNGAFLDIKTDKINFVGTDTKRLAIYTLEKANNQEFSFSIPKKAIMEMQKLFYEKIEIFYDQNMLIAKNENFEFFTKLINDKFPDYEKVIPKTFKQELSFSTEDFIDSLKKISVVTEKMRLHFNKDKIIFEGISLDNMEAKTELEIQTGVSEEFNLTIKIKHLLDFLTSIEEEKFTLSVNEPNSAFIVKSQGLSMIIMPMIL | not soluble
5 | MDKDCEMKRTTLDSPLGKLELSGCEQGLHEIKLLGKGTSAADAVEVPAPAAVLGGPEPLMQCTAWLNAYFHQPEAIEEFPVPALHHPVFQQESFTRQVLWKLLKVVKFGEVISYQQLAALAGNPKAARAVGGAMRGNPVPILIPCHRVVCSSGAVGNYSGGLAVKEWLLAHEGHRLGKPGLGGSSGLAGAWLKGAGATSGSPPAGRN | soluble
6 | LPFDGIVTKNIVSELSDILTGARIEKIYQPEPDEIIINLRTKGQNLKLLLSANASYPRIHLTDVTKENPINPPVFCMLLRKHLSGGKITKIDFHDFERVVTIHIETIDELGDLTFKKLVVEIMGKHSNIILVNNENKIIDSIKHVDSDISRVREVMPARPYTLPPGQDKINPLELDIDLLFSKAKEQGDPRISKFFLNNIKGFSPLLCEEICHRADVDPRLPVSSLSEDTIQNLKKVLKEIISKIENSEFTPCIIWNGDDRQKAVDFHSLEIKQYNTVDFYPSISRVLDLFYTIKDTSERLAQKKADLAKILNNCIDRCNKKISIHMDTLREVAEREKFKLYGELITANIYCIPKNASKVSLLNYYSENGEYVEVPLDENLLPQENAQRYFKKYAKAKAAYIHATQQLEEARGELSYLESVLHSLENSNSFEDIDDIRQELAEQGYLPSKKKRPEKKNSKNFTPYTYKSTDGFYIYVGKNNVQNDFLTLKFASSNDIWLHTKNIPGSHVIIRKDRGEIPDSTLFQAAMLAAYHSKAKNSSHVEVDYTKVKNVKKPNGAKPGMVIYDNYKTIIVTPDENVVNNLRMENR | soluble
7 | MGSDKIHHHHHHMTESSDYESVQVFIGVDVGKDTHHAVAINRSGKRLFDKALPNDENKLRSLISDLKQHGQILLVVDQPATIGALPVAVARSEGVLVGYLPGLAMRRIADLHAGEAKTDARDAAIIAEAARTLPHALRTLKLADEQIAELSMLCGFDDDLAAQTTQASNRILGLLTQIHPAPERVLGPRLEHPAVLDLLQRYPSPEKLASLGEKKLAAQLCKLAPRLGKRLAADIAQALAEQTVVVPGTNAAAVVLPRLALQLITLRKQRDEVALEVEQRVLAHPLYPVLTSMPGVGVRTAARLLTEVACRAFASAAHLAAYAGLAPVTRRSGSSIRGEHPSRRGNKALKRALFLSAFTALRDPLSRAYYTRKMSQGKRHNQVLIALARRRCDVLFAMMRDGTFYTPQGS | not soluble
8 | MWKRIALFLVVLLLAACGKTIPDAKNWPVEDFTFVDQTGKPFGLRDLKGKVWVADFIFTNCETVCPPMTAHMAKLKQMAKKEGLDVEFVSFSVDPEVDTPEKLAAYAKQFTDDLSNWHLLTGYSPAEISELAQKSFKTIVQKPANDDQVVHGTSFYLVGPDGKVVQTYSGVQDVPYETILEHIKIVQSSQ | not soluble
9 | HRCVALCIETRPDYCGEKEINQMLKLGATRVELGVQTIYNEILEFCKRGHTVEDTIKATQLLKDSGLKVSYHLMPGMPGSDMEMDKKMFKEIFENPDFKPDMVKIYPCLVIEGTELYEMWKRGEYKPYREEEAIEIISYAKSIMPKWV | not soluble
10 | MSLIRFRFVDDHRTDYSVKRMCTVLGLNRSSYYKWKASSAQRHRRLVDDAILGAKVQAIFDDKKQLYGAKRIAAELTFNDAYSSTGPVNHKRIARIMRKLQLRGYTKKRKVTTTQRERHRFIFADLVKRNFTAPAANRILVGDITYLPIADGSNMYLASVIDCYSRMLVGFAIADHMRTDLVEEALEHARRTRGSLSGAIFHSDHGSVYTSSQFQAVCRRLNVTQSMGAVGSSADNSLAESFNAALKREVLKDQKVFSNQLVCRRDVFAWCARYNTTRRHSWCKYLTPIEYESHASEGHHHHHH | not soluble
11 | MAHHHHHHMFGTPVENLTANQIKEELRTLYGVSDFSGCIEQKDLQEKLEKTRETELITHGLKYGPLLQIGNRQSPSGIVTLTHGLGDSANGWESVAVELSRRLPHLLFLLPTASMQPVGINGGAVMNSWYDIRNVSSGNGVTEDAEAIIMSANYLKSLAYTASRRYQVPAGRVVYAGFSQGAVISLAAGLTARIAPAGVAALSGYFAAAEKILPQLCNKSLPVLLCHGTMDNIIPFSAAEKTKETLESLGVGPVTLYSYPMEHSSHPKEINDLEKFLQQVLPGPSSKS | soluble
12 | MSLERKLEIVKTKTENYTIKVDGVFIHSKYDPLREAETFAIKNIELIKNSRYIVIYGFGLGYHIEAVLRHMNEESMLAVFDADLEVIKEAKKQSLYKKLIKNPRLKCFFDYGDEFLKEFSKSLSLAKNIIIYRPSLKVLPEEFGHMARLLKGYELAKIEIEKHGKLAEYNYDMNLKKTHKKMQDFLSFYSFGCENIVLVSSGPSLDYNIESLKKVRDRVKIFCAGSAAEFLIKNHIIPDMICIIDPQDIVYTQLQSILNKNIPLCFLSSACSRVVSEWSGEKFLFFNDFNAARENNDVVVETGKSVATAILSIAVLKKPKKVIFIGQDLAYLNGKSHHDNYGSSQSSGIKKVRSVDGEYLETNEGFLYFKSWIEQKIMKSKDIEFINCSSGAEIKGTIASKLIDAIKEGHHHHHH | soluble
13 | MSLSVKILFKNATVFPITSRPFKGDVLVSNGKVEKVGENIEDPDAEIVDLTGKFLFPGFVDAHSHIGLFEEGVGYYYSDGNEATDPVTPHVKALDGFNPQDPAIERALAGGVTSVMIVPGSANPVGGQGSVIKFRSIIVEECIVKDPAGLKMAFGENPKRVYGERKQTPSTRMGTAGVIRDYFTKVKNYMKKKELAQKEGKEFTETDLKMEVGEMVLRKKIPARMHAHRADDILTAIRIAEEFGFNLVIEHGTEAYKISKVLAEKKIPVVVGPLLTFRTKLELKDLTMETIAKLLKDGVLIALMCDHPVIPLEFATVQAATAMRYGAKEEDLLKILTVNPAKILGLEDRIGSIEPGKDADLVVWSGHPFDMKSVVERVYIDGVEVFRREGHHHHHH | soluble
14 | MKEPVKPTVKLAEIPPREPRFTPEQERIYARLSVHDPFNMLSEQHKANLIQLMTHGLGYRPIQLS | not soluble
15 | GGWGFLASFAAGIGLRHAEVATLGRASAPAEAQAAAADVREAGQASGAIEYGADRSEHPKVAAGAVMLDVLSFGNLLERSLEVLLVTLLGAMLYQHWDWRA | not soluble
16 | MENVTNFPLLQLPSKTIQVVLSIMSPFELINFSKSSAEAKKVVKQFANAKRRELYKFKVCIGLIPFVAFV | not soluble
17 | PHIDIKCFPRELDEQQKAALAADITDVIIRHLNSKDSSISIALQQIQPESWQAIWDAEIAPQMEALIKKPGYSMNA | soluble
18 | MGHHHHHHSHIHRIDSTEVIYQPRRKRAKLIGKYLMGDLLGEGSYGKVKEVLDSETLCRRAVKILKKKKLRRIPNGEANVKKEIQLLRRLRHKNVIQLVDVLYNEEKQKMYMVMEYCVCGMQEMLDSVPEKRFPVCQAHGYFCQLIDGLEYLHSQGIVHK | soluble
19 | MSLENSQELTPWQRLTIARMLERPTSLEYIDLIFDSFMEFHGDRAFGDDAAIVGGVAEFNGMPVTVIGQQKGRNTNENIKRNFGMPSPEGYRKALRLMKQAEKFNRPLICFVDTSGAYCGVEAEQRGQGEAIAKNLISMANLKIPVISVVIGEGGSGGALAMAVADEVWMLENSVYSLLSPEGFASILWKDSSRAKEAAEVMKITADDLKGYGIIDKVIKEPDGGAQNDITMVANALRENLKKAIEGLSSTGINELLDNRYNKFRQIGKFIENEDNEGHHHHHH | soluble
20 | MIGQEFRQLLIDKWGYSYDVQLRRTQGKIFLQVMWKYLEQASFPLSESQYQEHLDSITNYLNALGGTIQVQTFITQTKERPRLGKAVSIPLDLGDRSSEWIL | not soluble
21 | MSLSTADALDDENTFKILVATDIHLGFMEKDAVRGNDTFVTLDEILRLAQENEVDFILLGGDLFHENKPSRKTLHTCLELLRKYCMGDRPVQFEILSDQSVNFGFSKFPWVNYQDGNLNISIPVFSIHGNHDDPTGADALCALDILSCAGFVNHFGRSMSVEKIDISPVLLQKGSTKIALYGLGSIPDERLYRMFVNKKVTMLRPKEDENSWFNLFVIHQNRSKHGSTNFIPEQFLDDFIDLVIWGHEHECKIAPTKNEQQLFYISQPGSSVVTSLSPGEAVKKHVGLLRIKGRKMNMHKIPLHTVRQFFMEDIVLANHPDIFNPDNPKVTQAIQSFCLEKIEEMLENAERERLGNSHQPEKPLVRLRVDYSGGFEPFSVLRFSQKFVDRVANPKDIIHFFRHREQKEKTGEEINFGKLITKPSEGTTLRVEDLVKQYFQTAEKNVQLSLLTERGMGEAVQEFVDKEEKDAIEELVKYQLEKTQRFLKERHIDALEDKIDEEVRRFRETRQKNTNEEDDEVREAMTRARALREGHHHHHH | not soluble
22 | MGSDKIHHHHHHMTSTPHSPSEMFASIPGIFGFYPEESIVVLTLMHTKESCYQLGPVMRLDLKDLRYLSDIGDTLSAIEPDLVFGLIISGQKPEAIEDLRGLIEFVADCEIVPFDACWYTSAIESGGKYDAIWLNEAMTEAALEYQSWRKGRIPLIANTGITGEMIHAGHLPELSRKDIEKHYAQAEESEQWDEYLITERYAELFDDPSTSFRSAQECIDAFSQAVELMRTEKLITDAALTVAAFLKNKMSRDIIIECCVHNANTVKEALCYVSRHTKGFVRANALALYALCIVDSPWGNHITCVLQAAHNTLPFHHLTALVAEAYYRGLSGSIVDLVVSGSQEAQKHFGEATNVKSAV | not soluble
